Laboratory results published in patent US20100143349A1 (Pfizer, published 2010).

B1: 6C3 scFv (scFv)
scFv: DIQMTQSPSSLSASVGDRVTITCRASQDVGIYVNWFQQKPGKAPRRLIYRATNLADGVPSRFSGSRSGTDFTLTISSLQPEDFATYYCLEFDEHPLTFGGGTKVEIKDGGGSGGGGSGGGGSSEVQLVESGGGLVQPGGSLRLSCAASGFTFNNYWMTWVRQAPGKGLEWVASIDNSGDNTYYPDSVKDRFTISRDNAKNSLYLQMNSLRAEDTAVYYCARGGDITLGLDVWGQGTLVTVSS
B2: 6G4 scFv (scFv)
scFv: DIQMTQSPSSLSASVGDRVTITCRASQDVGIYVNWFQQKPGKAPRRLIYRATNLADGVPSRFSGSRSGTDFTLTISSLQPEDFATYYCLEFDEHPLTFGGGTKVEIKDGGGSGGGGSGGGGSSEVQLVESGGGLVQPGGSLRLSCAASGFTFNNYWMTWVRQAPGKGLEWVASIDNSGDNTYYPDSVKDRFTISRDNAKNSLYLQMNSLRAEDTAVYYCARGGDILDSLHFWGQGTLVTVSS
B3: 1G6 scFv-Fc fusion (Fc fusion)
chain: DIQMTQSPSSLSASVGDRVTITCRASQDVGFYVNWFQQKPGKAPRRLIYRATNLADGVPSRFSGSRSGTDFTLTISSLQPEDFATYYCLEFDEHPLTFGGGTKVEIKDGGGSGGGGSGGGGSSEVQLVESGGGLVQPGGSLRLSCAASGFTFNNYWMTWVRQAPGKGLEWVASIDNSGDNTYYPDSVKDRFTISRDNAKNSLYLQMNSLRAEDTAVYYCARGGDITNGFDYWGQGTLVTVSS
notes: not shown: wild-type human IgG Fc (hinge and constant domains)
B4: 2E6 scFv-Fc fusion (Fc fusion)
chain: DIQMTQSPSSLSASVGDRVTITCRASQDVGIYVNWFQQKPGKAPRRLIYRATNLADGVPSRFSGSRSGTDFTLTISSLQPEDFATYYCLEFDEHPLTFGGGTKVEIKDGGGSGGGGSGGGGNSEVQLVESGVGLVQPGGSLRLSCAASGFTFNNYWMTWVRQAPGKGLEWVASIDNSGDNTYYPDSVKDRFTISRDNAKNSLYLQMNSLRAEDTAVYYCARGGDITNGLDYWGQGTLVTVSS
notes: also called 2E6 (c); not shown: wild-type human IgG Fc (hinge and constant domains)
B5: 3A6 scFv-Fc fusion (Fc fusion)
chain: DIQMTQSPSSLSASVGDRVTITCRASQDVGIYVNWFQQKPGKAPRRLIYRATNLADGVPSRFSGSRSGTDFTLTISSLQPEDFATYYCLEFDEHPLTFGGGTKVEIKDGGGSGGGGSGGGGSSEVQLVESGGGLVQPGGSLRLSCAASGFTFNNYWMTWVRQAPGKGLEWVASIDNSGDNTYYPDSVKDRFTISRDNAKNSLYLQMNSLRAEDTAVYYCARGGDILVSLDVWGQGTLVTVSS
notes: as for B3
B6: 3B2 scFv-Fc fusion (Fc fusion)
chain: DIQMTQSPSSLSASVGDRVTITCRASQDVGIYVNWFQQKPGKAPRRLIYRATNLADGVPSRFSGSRSGTDFTLTISSLQPEDFATYYCLEFDEHPLTFGGGTKVEIKDGGGSGGGGSGGGGSSEVQLVESGGGLVQPGGSLRLSCAASGFTFNNYWMTWVRQAPGKGLEWVASIDNSGDNTYYPDSVKDRFTISRDNAKNSLYLQMNSLRAEDTAVYYCARGGDILVGLDYWGQGTLVTVSS
notes: as for B3
B7: 3B3 scFv-Fc fusion (Fc fusion)
chain: DIQMTQSPSSLSASVGDRVTITCRASQDVGFYVNWFQQKPGKAPRRLIYRATNLADGVPSRFSGSRSGTDFTLTISSLQPEDFATYYCLEFDEHPLTFGGGTKVEIKDGGGSGGGGSGGGGSSEVQLVESGGGLVQPGGSLRLSCAASGFTFNNYWMTWVRQAPGKGLEWVASIDNSGDNTYYPDSVKDRFTISRDNAKNSLYLQMNSLRAEDTAVYYCARGGDITTGLDYWGQGTLVTVSS
notes: as for B3
B8: 3D2 scFv-Fc fusion (Fc fusion)
chain: DIQMTQSPSSLSASVGDRVTITCRASQDVGIYVNWFQQKPGKAPRRLIYRATNLADGVPSRFSGSRSGTDFTLTISSLQPEDFATYYCLEFDEHPLTFGGGTKVEIKDGGGSGGGGSGGGGSSEVQLVESGGGLVQPGGSLRLSCAASGFTFNNYWMTWVRQAPGKGLEWVASIDNSGDNTYYPDSVKDRFTISRDNAKNSLYLQMNSLRAEDTAVYYCARGGDIRVSLDHWGQGTLVTVSS
notes: as for B3
B9: 3G5 scFv-Fc fusion (Fc fusion)
chain: DIQMTQSPSSLSASVGDRVTITCRASQDVGIYVNWFQQKPGKAPRRLIYRATNLADGVPSRFSGSRSGTDFTLTISSLQPEDFATYYCLEFDEHPLTFGGGTKVEIKDGGGSGGGGSGGGGSSEVQLVESGGGLVQPGGSLRLSCAASGFTFNNYWMTWVRQAPGKGLEWVASIDNSGDNTYYPDSVKDRFTISRDNAKNSLYLQMNSLRAEDTAVYYCARGGDILDSLPYWGQGTLVTVSS
notes: Substitutions derived from the printed HCDR3; not shown: wild-type human IgG Fc (hinge and constant domains)
B10: 5A3 scFv-Fc fusion (Fc fusion)
chain: DIQMTQSPSSLSASVGDIVTITCRASQDVGIYVNWFQQKPGKAPRRLIYRATNLADGVPSRFSGSRSSTDFTLTISSLQPEDFATYYCLEFDEHPLTFGGGTKVEIKDGGGSGGGGSGGGGSSEVQLVESGGGLVQPGGSLRLSCAASGFTFNNYWMTWVRQAPGKGLEWVASIDNSGDNTYYPDSVKDRFTISRDNAKNSLYLKMNSLRAEDTAVYYCTRGGDITTGLDYWGQGTLVTVSS
notes: as for B3
B11: 5H3 scFv-Fc fusion (Fc fusion)
chain: DIQMTQSPSSLSASVGDRVTITCRASQDVGIYVNWFQQKPGKAPRRLIDRATNLADGVPSRFSGSRSGTDFTLTISSLQPEDFATYYCLEFDEHPLTFGGGTKVEIKDGGGSGGGGSGGGGSSEVLLVESGGGLVQPGGSLRLSCAASGFTFNNYWMTWVRQAPGKGLEWVASIDNSGDNTYYPDSVKDRFTISRDNAKNSLYLQMNSLRAEDTAVYYCARGGDITTGFDYWGQGTLVTVSS
notes: as for B3
B12: 6B2 scFv-Fc fusion (Fc fusion)
chain: DIQMTQSPSSLSASVGDRVTITCRASQDVGIYVNWFQQKPGKAPRRLIYRATNLADGVPSRFSGSRSGTDFTLTISSLQPEDFATYYCLEFDEHPLTFGGGTKVEIKDGGGSGGGGSGGGGSSEVQLVESGGGLVQPGGSLRLSCAASGFTFNNYWMTWVRQAPGKGLEWVASIDNSGDNTYYPDSVKDRFTISRDNAKNSLYLQMNSLRAEDTAVYYCARGGDIRVGLDVWGQGTLVTVSS
notes: as for B9
B13: 10H6 scFv-Fc fusion (Fc fusion)
chain: DIQMTQSPSSLSASVGDGVTITCQASQDVGIYVNWFQQKPGKAPRRLIYRATNLADGVPSRFSGSRSGTDFTLTISSLQPEDFATYYCLEFDEHPLTFGGGTKVEIKNGGGSGGGGSGGGGSSEVQLVESGGGLVQPGGSLRLSCAASGFTFNNYWMTWVRQAPGKGLEWVASIDNSGDNTYYPDSVKDRFTISRDNAKNSLYLQMNSLRAEDTAVYYCARGGDITTGLDYWGQGTLVTESS
notes: also called 10H6 (a); not shown: wild-type human IgG Fc (hinge and constant domains)

How the values were obtained:
hRAGE-Fc [1] = target: T1, hRAGE-Fc (human, UniProt Q15109 23-342, biotin label in the selections and HTRF assays); test: HTRF competition, scFv vs labelled parental XT-M4 (competitor) on biotin hRAGE-Fc
T1 construct: extracellular domain; also called biotin labeled hRAGE-Fc; Biotin-labeled RAGE-Fc; not shown: Fc part
T1 sequence (Q15109 23-342): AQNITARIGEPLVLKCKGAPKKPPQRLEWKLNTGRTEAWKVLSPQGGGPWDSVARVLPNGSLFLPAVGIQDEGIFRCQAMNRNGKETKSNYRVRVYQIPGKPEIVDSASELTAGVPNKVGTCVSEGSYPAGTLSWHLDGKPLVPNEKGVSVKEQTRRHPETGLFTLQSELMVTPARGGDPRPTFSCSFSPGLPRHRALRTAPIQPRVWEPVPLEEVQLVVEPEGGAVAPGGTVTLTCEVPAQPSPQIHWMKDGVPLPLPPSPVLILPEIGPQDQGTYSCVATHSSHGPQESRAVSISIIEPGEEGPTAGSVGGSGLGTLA
Protocol: (§1) Increases in binding to RAGE antigen were detected with the aid of a competition assay using parental XT-M4 antibody. Both phage display and ribosome display libraries were selected for affinity improved variants by incubating with biotin labeled hRAGE-Fc, recovering binding clones using streptavidin magnetic beads and washing away non binding variants. Sequential rounds of selection were carried on decreasing antigen concentrations to drive the preferential recovery of higher affinity variants. Clones recovered after selection were subsequently screening for improved binding to hRAGE-Fc using HTRF. This is an assay that measures the decrease in fluorescence upon binding of parental europium cryptate-labeled XT-M4 to RAGE in the presence of competing test scFv antibodies. In these assays, periplasmic preparations of scFv were prepared from bacterial cultures and added in increasing concentrations to a combination of parental antibody and antigen. The ability of the scFV to compete with parental XT-M4 antibody to bind to Biotin-labeled RAGE-Fc was determined. In the presence of avidin-XL665 complex labeled XT-M4 bound to biotinylated RAGE-FC was detected by Fluorescence. Increasing amounts of scFv that competed with the XT-M4 for binding to biotinylated-RAGE-Fc was detected as a decrease in fluorescence. A sequential process of screening was used to focus in on a smaller number of clones with the greatest competition in HTRF assay

hRAGE-Fc [2] = target: T1, hRAGE-Fc; test: IC50 of parental M4 scFv over IC50 of clone, HTRF competition
Protocol: as §1

hRAGE-Fc [3] = target: T1, hRAGE-Fc; test: HTRF competition, scFv vs labelled parental XT-M4 (competitor) on hRAGE
Protocol: as §1

hRAGE-Fc [4] = target: T1, hRAGE-Fc; test: IC50 of parental M4 scFv-Fc over IC50 of clone, HTRF competition
[5] = target: T2, human RAGE expressed on CHO cells (human, UniProt Q15109 23-404); test: cell ELISA on CHO-RAGE cells, A450 corrected for control CHO cells
T2 construct: whole, on cells; also called CHO-RAGE cells; cell surface expressed human RAGE
T2 sequence (Q15109 23-404): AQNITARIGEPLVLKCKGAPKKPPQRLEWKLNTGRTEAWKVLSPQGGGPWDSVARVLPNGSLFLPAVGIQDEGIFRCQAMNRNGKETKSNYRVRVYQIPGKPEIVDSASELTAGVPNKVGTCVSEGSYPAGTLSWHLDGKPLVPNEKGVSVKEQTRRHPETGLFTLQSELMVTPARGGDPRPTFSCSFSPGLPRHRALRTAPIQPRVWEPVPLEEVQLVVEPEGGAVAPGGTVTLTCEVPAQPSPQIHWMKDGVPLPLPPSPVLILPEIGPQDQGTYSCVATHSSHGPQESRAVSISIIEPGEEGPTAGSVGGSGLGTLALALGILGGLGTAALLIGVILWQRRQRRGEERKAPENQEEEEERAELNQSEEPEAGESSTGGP
Protocol: Stably transfected Chinese Hamster Ovary (CHO) cells were engineered to express murine and human RAGE full length proteins. The murine and human RAGE cDNAs were cloned into the mammalian expression vector pSMED, linearized and transfected into CHO cells using lipofectin methods (Kaufman, R. J., 1990, Methods in Enzymology 185:537-66; Kaufman, R. J., 1990, Methods in Enzymology 185:487-511; Pittman, D. D. et al., 1993, Methods in Enzymology 222: 236). Cells were further selected in 20 nM methotrexate and cell extracts were harvested from individual clones and analyzed by SDS sodium dodecyl sulfate-polyacrylamide gel electrophoresis (SDS-PAGE) and Western blotting to confirm expression. […] Absorbance 450 nm values were corrected for the same clones binding to control CHO cells not expressing RAGE. EC50 values were calculated after curve fitting using GraphPad prism and are expressed in μg/ml.

HU-RAGE-SA [6] = target: T3, HU-RAGE-SA (human, UniProt Q15109 23-342); test: BIAcore kd against parental M4 scFv-Fc
T3 construct: extracellular domain; Directly immobilized on a CM5 chip (~100 RU); also called hRAGE-SA; soluble human streptavidin-tagged RAGE; not shown: streptavidin tag (SA)
T3 sequence (Q15109 23-342): as the sequence (Q15109 23-342) above

HU-RAGE-SA [7] = target: T3, HU-RAGE-SA; test: BIAcore, 10 nM scFv-Fc over directly immobilized HU-RAGE-SA, 1:1 fit

Row | Binder | IC50 (hRAGE-Fc [1]) [nM] | Fold gain scFv (hRAGE) (hRAGE-Fc [2]) [fold] | IC50 (hRAGE-Fc [3]) [nM] | Fold gain scFv-Fc (hRAGE) (hRAGE-Fc [4]) [fold] | EC50 [5] [µg/mL] | Fold change in kd (HU-RAGE-SA [6]) [fold] | koff (HU-RAGE-SA [7]) [s⁻¹]
1 | B1 | 1.53 | 21.5 | 1.53 | – | – | – | –
2 | B2 | 2.03 | 16.2 | 2.03 | – | – | – | –
3 | B3 | – | – | – | 6.4 | 0.188 | 66.9 | 0.000438
4 | B4 | – | – | – | 6.9 | 0.113 | 25.7 | 0.00114
5 | B5 | – | – | – | 9.9 | 0.0673 | 33.8 | 0.000867
6 | B6 | – | – | – | 34.2 | 0.0335 | 42.8 | 0.000684
7 | B7 | – | – | – | 8.8 | 0.541 | 4.5 | 0.00649
8 | B8 | – | – | – | 31.3 | 0.136 | 7.4 | 0.00391
9 | B9 | – | – | – | 62.7 | 0.0565 | 65.1 | 0.00045
10 | B10 | – | – | – | 12.2 | 0.096 | 5.9 | 0.00494
11 | B11 | – | – | – | 6.1 | – | 0.35 | 0.0826
12 | B12 | – | – | – | 8.2 | 0.0816 | 61 | 0.000484
13 | B13 | – | – | – | 13.7 | – | 25.3 | 0.00116
